Test results published in article PMC3293417 (Nature Communications, 2012).
Blank lines part the entries; values can stand above or below the molecule they belong to.

B1: Beclin 1 coiled coil (CC) domain (residues 174–266), wild type, untagged (domain or fragment)
chain: DSEQLQRELKELALEEERLIQELEDVEKNRKVVAENLEKVQAEAERLDQEEAQYQREYSEFKRQQLELDDELKSVENQMRYAQMQLDKLKKTN
B2: CC region of rat Atg14L (residues 88–178) (domain or fragment)
chain: KQEEFQKEVLKAMEGKRLTDQLRWKIMSCKMRIEQLKQTICKGNEEMKKNSEGLLKNKEKNQKLYSRAQRHQEKKEKIQRHNRKLGDLVEK
B3: CC region of mouse UVRAG (residues 228–298) (domain or fragment)
chain: TSNELKKESECLRLKILVLRNELERQKKALGREVAFLHKQQMALQDKGSAFSTEHGKLQLQKDSLSELRKE

Key:
[1] = target: CC region of mouse UVRAG (residues 228–298) (mouse) (UniProt Q8K245); assay: ITC
[2] = target: B2; assay: ITC
[3] = target: B3; assay: ITC
ITC = target: the molecule itself; assay: ITC
[4] = target: B1; assay: ITC
[5] = target: Beclin 1 CC domain MutM L178A/L192A (rat, UniProt Q91XJ1 174-266, L178A | L192A); assay: ITC
[6] = target: Beclin 1 CC domain MutM L178A/L196A (rat, UniProt Q91XJ1 174-266, L178A | L196A); assay: ITC
[7] = target: Beclin 1 CC domain MutM L178A/L259A (rat, UniProt Q91XJ1 174-266, L178A | L259A); assay: ITC
[8] = target: Beclin 1 CC domain MutStab E224L (rat, UniProt Q91XJ1 174-266, E224L); assay: ITC
AUC = target: the molecule itself; assay: AUC

Chain of Beclin 1 CC domain MutM L178A/L259A (Q91XJ1 174-266 L178A/L259A): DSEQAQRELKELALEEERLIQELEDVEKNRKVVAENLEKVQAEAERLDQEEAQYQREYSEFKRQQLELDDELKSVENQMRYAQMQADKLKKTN

Kd [1]: 2240 nM
Molecule: Beclin 1 CC domain MutM L178A/L192A (from UniProt Q91XJ1 174-266) (domain or fragment)

Kd [1]: 4240 nM
Molecule: Beclin 1 CC domain MutStab A217L/E224L/A255L (from UniProt Q91XJ1 174-266) (domain or fragment)

Kd [1]: 1130 nM
Molecule: Beclin 1 CC domain MutStab E189L (from UniProt Q91XJ1 174-266) (domain or fragment)

Kd [1]: 8700 nM
Molecule: Beclin 1 CC domain MutStab E189L/A217L/E224L/A255L (from UniProt Q91XJ1 174-266) (domain or fragment)

Kd [1]: 1310 nM
stoichiometry N [1]: 1
Molecule: Beclin 1 CC domain MutStab E189L/A255L (from UniProt Q91XJ1 174-266) (domain or fragment)

Kd [1]: 2430 nM
Molecule: Beclin 1 CC domain MutStab E224L (from UniProt Q91XJ1 174-266) (domain or fragment)

Further lines, the molecule ahead of its results:

Molecule: Beclin 1 CC domain MutM L178A/L196A (from UniProt Q91XJ1 174-266) (domain or fragment)
Kd [1]: 1140 nM

Molecule: Beclin 1 CC domain MutM L178A/L259A (from UniProt Q91XJ1 174-266) (domain or fragment)
Kd [1]: 70 nM

Molecule: Beclin 1 CC domain MutStab A217L/E224L (from UniProt Q91XJ1 174-266) (domain or fragment)
Kd [1]: 1440 nM
stoichiometry N [1]: 1

Molecule: B1
stoichiometry N [2]: 1
stoichiometry N [3]: 1
Kd (ITC): ~89000 nM

Molecule: B2
Kd [4]: 3220 ± 950 nM
Kd [5]: 4610 ± 500 nM
Kd [6]: 6850 ± 840 nM
Kd [7]: 1200 ± 130 nM
Kd [8]: 8850 ± 400 nM

Molecule: B3
Kd [4]: 240 ± 60 nM

B4: Beclin 1 CC domain MutStab E189L/A217L/E224L/A255L (domain or fragment)
chain: DSEQLQRELKELALELERLIQELEDVEKNRKVVAENLEKVQAELERLDQELAQYQREYSEFKRQQLELDDELKSVENQMRYLQMQLDKLKKTN
stoichiometry N (AUC): 4
